The text below walks through data of patent US11434289B2, “Anti-GPR20 antibody and anti-GPR20 antibody-drug conjugate” (DAIICHI SANKYO COMPANY, LIMITED, priority 2017, dated 2022).

Changes are numbered by the printed parent chain.

The target of experiment [1] is T1, human GPR20 (Homo sapiens, UniProt Q99678).
T1 construct: expressed in transfected cells; host or cells: 293T cells, transient, Lipofectamine 2000
Kind of experiment: Analysis of GPR20-binding site of anti-GPR20 antibodies by Cell-ELISA. The settings on record: EC1 = positions 1 to 48, EC2 = positions 108 to 125 of human GPR20. How it is done:
(§1) The culture supernatant of the 293a cells transfected with the expression vector prepared in Example 1)-4-1 was removed, and the culture supernatant from each hybridoma was then added to the 293a cells transfected either with pcDNA3.1-hGPR20 or pcDNA3.1. The cells were left standing at 4° C. for 1 hour. The cells in the wells were washed once with PBS (+) supplemented with 5% FBS, and thereafter, Anti-Rat IgG-Peroxidase antibody produced in rabbit (Sigma-Aldrich Co. LLC) that had been 500-fold diluted with PBS (+) supplemented with 5% FBS was added to the wells. The cells were left standing at 4° C. for 1 hour. The cells in the wells were washed three times with PBS (+) supplemented with 5% FBS, and thereafter, OPD chromogenic solution (which had been prepared by dissolving o-phenylenediamine dihydrochloride (Wako Pure Chemical Industries, Ltd.) and H2O2 in an OPD solution (0.05 M trisodium citrate, 0.1 M disodium hydrogen phosphate 12-water; pH 4.5), so that the substances became 0.4 mg/ml and 0.6% (v/v), respectively) was added in an amount of 100 μL/well to the wells. A coloring reaction was carried out with occasional stirring. Thereafter, 1 M HCl was added to the plate (100 μL/well) to terminate the coloring reaction, followed by measurement of the absorbance at 490 nm using a plate reader (ENVISION: PerkinElmer, Inc.).
Binding sites of anti-human GPR20 antibodies were classified by measuring their binding activity against mouse GPR20, N-terminally FLAG-tagged human GPR20, and human/mouse chimeric GPR20 in which each of four extracellular regions (EC1, EC2, EC3, and EC4) of human GPR20 was substituted with a mouse GPR20-derived sequence, respectively, by Cell-ELISA. FIG. 21 is a diagram of the comparison between the amino acid sequences of human GPR20 (NP_005284) and mouse GPR20 (NP_775541). The four extracellular regions EC1 to EC4 are represented by positions in the amino acid sequence of human GPR20. EC1 corresponds to positions 1 to 48, EC2 corresponds to positions 108 to 125, EC3 corresponds to positions 190 to 196, and EC4 corresponds to positions 260 to 275. […]

Experiment [2] deals with T2, mouse GPR20 (Mus musculus, UniProt Q8BYC4).
T2 construct: using the full-length mouse GPR20 expression vector pcDNA-mGPR20 constructed in 4)-1 as a template; expressed in transfected cells; host or cells: 293α cells, transient
Kind of experiment: Cell-ELISA binding to 293α cells expressing mouse GPR20. Conditions: transiently transfected 293α cells, FIG. 22. How it is done:
as §1
According to a method known to a person skilled in the art, cDNA was artificially synthesized based on Ref Seq sequence NM_173365 of mouse GPR20, and then cloned into pcDNA-DEST40 expression vector (Invitrogen Corp.) to construct mouse GPR20 expression vector pcDNA-mGPR20.
The binding activity of the anti-GPR20 antibodies 04-046, 04-079, 04-126, 04-021, 13-024, and 13-048 against 293a cells into which different GPR20 expression vectors were transiently introduced was examined by the same method as the Cell-ELISA method shown in Example 1. […]

Experiment [3] has as its target T3, human GPR20 with EC1 substituted with a mouse GPR20-derived sequence (Mus musculus, UniProt Q8BYC4, A277V/A334G/A336G/DEL187-187/DEL317-317/F111Y/F318R/G190S/I170A/I299V/I338H/I343A/K166R/K271H/K319E/K330R/M323G/N268D/P337R/P351A/Q152R/R229H/R314H/S188T/S192P/S345P/T332S/T347A/T353A/T60A/T88I/V178A/V247I/V269M/V56A/W159C/Y312G).
T3 construct: expressed in transfected cells; host or cells: 293α cells, transient
As to the kind of experiment: Cell-ELISA binding to human/mouse chimeric GPR20 (EC1 substituted). The settings on record: hGPR20_mECD1, FIG. 22. As for the experimental part: as §1
An expression vector for human GPR20 with EC1 substituted with a mouse GPR20-derived sequence was constructed using an In-Fusion (registered trademark) HD Cloning Kit (Clontech Laboratories, Inc.). Specifically, using the full-length human GPR20 expression vector pcDNA3.1-hGPR20 produced in Example 1 as a template, a PCR reaction was carried out with the primer set given below and KOD FX DNA polymerase (Toyobo Co., Ltd.) at 10 cycles each involving 98° C. for 10 seconds, 58° C. for 30 seconds, and 68° C. for 7 minutes to amplify a DNA fragment comprising the vector sequence. […]

In experiment [4] the target is T4, human GPR20 with EC2 substituted with a mouse GPR20-derived sequence (Homo sapiens, UniProt Q99678, Y113F).
T4 construct: expressed in transfected cells; host or cells: 293α cells, transient
As to the kind of experiment: Cell-ELISA binding to human/mouse chimeric GPR20 (EC2 substituted). Conditions: hGPR20_mECD2, FIG. 22. How it is done:
as §1
In the construction of expression vectors given below, using the full-length human GPR20 expression vector pcDNA3.1-hGPR20 produced in Example 1 as a template, each PCR reaction was carried out with the primer set given below. In this reaction, KOD FX DNA polymerase (Toyobo Co., Ltd.) was used, and the reaction was carried out at 15 cycles or 10 cycles each involving 98° C. for 10 seconds, 58° C. for 30 seconds, and 68° C. for 7 minutes. Thereafter, the obtained PCR product was treated with the restriction enzyme Dpnl. […]

T4 sequence (Q99678 whole entry Y113F): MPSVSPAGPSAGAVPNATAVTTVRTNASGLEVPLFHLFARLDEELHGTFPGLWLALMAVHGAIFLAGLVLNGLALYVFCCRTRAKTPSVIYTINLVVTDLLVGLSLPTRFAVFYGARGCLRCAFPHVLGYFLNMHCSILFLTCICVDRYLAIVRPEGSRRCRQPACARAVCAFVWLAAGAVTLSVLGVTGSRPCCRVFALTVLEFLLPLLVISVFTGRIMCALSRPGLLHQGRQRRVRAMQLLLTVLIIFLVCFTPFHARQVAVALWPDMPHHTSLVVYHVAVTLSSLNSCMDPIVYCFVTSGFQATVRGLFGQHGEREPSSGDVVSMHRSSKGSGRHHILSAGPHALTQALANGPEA
T1 sequence (Q99678 whole entry): as the sequence (Q99678 whole entry Y113F) above, with F113Y counted along it
T2 sequence (Q8BYC4 whole entry): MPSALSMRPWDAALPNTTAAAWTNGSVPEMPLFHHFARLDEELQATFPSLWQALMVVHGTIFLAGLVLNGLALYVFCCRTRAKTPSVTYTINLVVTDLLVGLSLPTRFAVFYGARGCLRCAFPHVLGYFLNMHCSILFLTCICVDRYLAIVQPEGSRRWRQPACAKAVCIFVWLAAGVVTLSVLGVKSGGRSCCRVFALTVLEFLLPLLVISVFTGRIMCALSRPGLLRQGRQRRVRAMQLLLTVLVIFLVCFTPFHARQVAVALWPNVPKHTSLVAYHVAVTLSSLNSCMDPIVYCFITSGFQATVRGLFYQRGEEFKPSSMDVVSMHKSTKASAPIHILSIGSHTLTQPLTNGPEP
T3 sequence (Q8BYC4 with tags, fused parts or gaps with the stated changes): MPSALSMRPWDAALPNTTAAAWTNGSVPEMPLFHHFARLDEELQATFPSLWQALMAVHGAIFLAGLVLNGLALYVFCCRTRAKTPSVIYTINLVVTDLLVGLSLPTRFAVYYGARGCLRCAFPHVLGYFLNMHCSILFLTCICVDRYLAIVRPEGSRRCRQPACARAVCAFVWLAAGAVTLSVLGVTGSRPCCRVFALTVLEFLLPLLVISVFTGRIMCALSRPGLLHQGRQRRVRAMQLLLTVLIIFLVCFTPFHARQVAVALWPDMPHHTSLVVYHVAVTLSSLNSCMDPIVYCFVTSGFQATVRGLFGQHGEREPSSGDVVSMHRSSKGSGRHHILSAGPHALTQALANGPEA

B1: 04-079: rat anti-human GPR20 antibody; heavy chain SEQ ID NO: 12, light chain SEQ ID NO: 17 (antibody, listed as Rattus norvegicus)
heavy: MEWNWVFLFLLSVTAVVHSQVQLQQSGAELAKPGSSVKISCKASGYTFTSYYITWIKQTTGQGLKYIGYINPGSGHTNYNEKFKGKATLTVDKSSSTAFMQLSSLTPDDSAVYYCARGAGGFLRIISKFDYWGQGVMVTVSSAQTTAPSVYPLAPGCGDTTSSTVTLGCLVKGYFPEPVTVTWNSGALSSDVHTFPAVLQSGLYTLTSSVTSSTWPSQTVTCNVAHPASSTKVDKKVERRNGGIGHKCPTCPTCHKCPVPELLGGPSVFIFPPKPKDILLISQNAKVTCVVVDVSEEEPDVQFSWFVNNVEVHTAQTQPREEQYNSTFRVVSALPIQHQDWMSGKEFKCKVNNKALPSPIEKTISKPKGLVRKPQVYVMGPPTEQLTEQTVSLTCLTSGFLPNDIGVEWTSNGHIEKNYKNTEPVMDSDGSFFMYSKLNVERSRWDSRAPFVCSVVHEGLHNHHVEKSISRPPGK
light: METDRLLLWVLLLWVPGSTGDTVLTQSPALAVSLGQRVTISCRASKSVSTYMHWYQQRSGQQPKLLIYSASNLESGVPSRFSGSGSGTDFTLTIDPVKADDITNYYCQQSNELPYTFGAGTKLELKRADAAPTVSIFPPSTEQLATGGASVVCLMNNFYPRDISVKWKIDGTERRDGVLDSVTDQDSKDSTYSMSSTLSLTKADYESHNLYTCEVVHKTSSSPVVKSFNRNEC
modifications: SIGNAL (1)..(19); SIGNAL (1)..(20)
For B1, the “GPR20 extracellular region recognized” value in experiment [1] is reported as “EC1, EC2”. The “binding activity against mouse GPR20” value in experiment [2] was “did not bind”. The “binding activity after substituting EC1 of human GPR20 with that of mouse-derived GPR20” value (“binding activity after substituting EC1” for short) in experiment [3] is listed as “lost binding activity”. Besides, the “binding activity after substituting EC2 of human GPR20 with that of mouse-derived GPR20” value (“binding activity after substituting EC2” below) in experiment [4] is reported as “lost binding activity”.

B2: 04-046: rat anti-human GPR20 antibody; heavy chain SEQ ID NO: 2, light chain SEQ ID NO: 7 (antibody, listed as Rattus norvegicus)
heavy: B1 heavy with V16E, T54S, Y69F, V112I, S127T
light: B1 light with M52I, K98E, A99P, T103A, S110I
modifications: SIGNAL (1)..(19); SIGNAL (1)..(20)
Regarding B2, the “GPR20 extracellular region recognized” value in experiment [1] is “EC1, EC2”. The “binding activity against mouse GPR20” value in experiment [2] is given as “did not bind”. Also, the “binding activity after substituting EC1” value in experiment [3] was “lost binding activity”. Also, the “binding activity after substituting EC2” value in experiment [4] is recorded as “lost binding activity”.

B3: 04-126: rat anti-human GPR20 antibody; heavy chain SEQ ID NO: 22, light chain SEQ ID NO: 27 (antibody, listed as Rattus norvegicus)
heavy: B1 heavy with V16E, Q24R, T54I, I56M, T60A, K65Q, I67V, A119T
light: B1 light with N72T, K98E, T103A
modifications: SIGNAL (1)..(19); SIGNAL (1)..(20)
B3: the “GPR20 extracellular region recognized” value in experiment [1] was “EC1, EC2”. Besides, the “binding activity against mouse GPR20” value in experiment [2] is on record as “did not bind”. Besides, the “binding activity after substituting EC1” value in experiment [3] was “lost binding activity”. For the same molecule, the “binding activity after substituting EC2” value in experiment [4] is recorded as “lost binding activity”.
